PMC5384220

Biological target: T1, N-terminally Hexa-His-tagged KDM4A (residues 1–359) (human) (UniProt O75164)
T1 sequence: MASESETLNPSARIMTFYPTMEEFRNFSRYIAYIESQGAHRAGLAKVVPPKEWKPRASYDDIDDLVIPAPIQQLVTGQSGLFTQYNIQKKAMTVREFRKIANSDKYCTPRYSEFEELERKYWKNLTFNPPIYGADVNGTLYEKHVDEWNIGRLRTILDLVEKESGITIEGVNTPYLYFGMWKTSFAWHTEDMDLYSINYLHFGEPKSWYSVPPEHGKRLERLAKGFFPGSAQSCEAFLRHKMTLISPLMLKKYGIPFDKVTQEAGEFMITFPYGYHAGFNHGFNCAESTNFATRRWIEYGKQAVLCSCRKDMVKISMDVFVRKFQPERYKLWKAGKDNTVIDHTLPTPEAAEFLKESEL

B1: PolyR (Arg)9 peptide (peptide)
peptide: RRRRRRRRR
- IC50 of inhibition of demethylase activity (AlphaScreen method): 40 nM
